Where two headings read alike, the source gives them in different places.
Legend:
[1] = molecular target: T1, human alpha-thrombin (Homo sapiens, UniProt P00734;P00734 328-363;364-622); test: competition
[2] = molecular target: T1, human alpha-thrombin; test: competition; remark: listed apart in the source

Row | Binder | binding result [1] | binding result [2]
1 | GGTTGGTGTGGTTGG (structured_DNA) [thrombin binding aptamer (TBA) oligo] | binds | –
2 | GGCGTAACTGATCGATCGT (ssDNA) [non-specific oligonucleotide] | – | no binding

From paper PMC3961559
